18 sequences from the supplement of paper PMC12764529 can be followed below.

± gives the half width of the 95% confidence interval.

A short description of data set [1]: folding stability dG unfold from trypsin proteolysis; higher = more stable. The method, boiled down: (§1)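 How resistant each design was to proteolysis was captured as K50, inferred by Bayesian fitting of sequencing counts. Unfolding free energy was then derived relative to a sequence-predicted unfolded-state K50 and a shared folded-state K50, per protease or combined. Digestion used trypsin and chymotrypsin at 11 threefold-diluted concentrations plus a no-protease condition, on mini-proteins under 80 residues without cysteine in a PA-tagged cDNA display construct. Designs were kept only when AlphaFold2 dimer inter-PAE was above 15.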

Data set [2] is described as follows: folding stability dG unfold from chymotrypsin proteolysis; higher = more stable. The method, boiled down: as §1
Data set [3] in a line: folding stability dG unfold (combined trypsin and chymotrypsin); higher = more stable. The method, boiled down:
as §1

“MTPEERIEEIEAKARELLRELGLPPEVRLTVEAEVRPRPDGRLELRVRVTVEFPGPPGAIPPELLEALAEES [r1_98_TrMRF]”: the “folding stability dG unfold” value in data set [1] came to 2.7 ± 0.081 kcal/mol; in data set [2], 2.38 ± 0.086 kcal/mol; in data set [3], 2.53 ± 0.14 kcal/mol.
Consider “MTPTFTVTELPPDLLRVEYTDPVTGKRATFTLPVSPVGDGVRLSAEVDAEGLPEEVAAAIRDAALAALAAAS [r1_403_JUSTAS]”, for which the “folding stability dG unfold” value in data set [1] came to 1.48 ± 0.021 kcal/mol; in data set [2] it was 2.3 ± 0.023 kcal/mol; in data set [3], 2.06 ± 0.042 kcal/mol.
For the sequence “MVELVEVTRENGLVTVTVANPIPGATLTVEVRDPEGKVLASSTSPSPTVTVTAEIPPDEDFSVTVTQTPPAS [r1_382_JUSTAS]”, the figures for the “folding stability dG unfold” value in data set [1], in data set [2] and in data set [3] were 3.43 ± 0.14 kcal/mol, 3.99 ± 0.2 kcal/mol and more than 6 kcal/mol, respectively.
On the same counts, the results for “MYLVRIKIEYKTEDGEKVEKEITLLVEPSEEEAKEKAEELARKIAEELGLSEEEIKKIEVEVVKLGEELEES [r1_159_TrROS_Hall]” are 4.05 ± 0.22 kcal/mol, 4.37 ± 0.12 kcal/mol and 4.29 ± 0.15 kcal/mol.
“MYTIEVEVSTEPNPNTTTVTVRITSDDGTPVPEEVVKEAAEKIKKSGYPIDELEVKPLPDGSVEVTLKYSSS [r1_408_JUSTAS]”: the “folding stability dG unfold” value in data set [1] worked out at 3.31 ± 0.17 kcal/mol; in data set [2], 4.05 ± 0.13 kcal/mol; in data set [3], 3.76 ± 0.11 kcal/mol.
On the same counts, the results for “MYVVRAKFKIKGEDGSEFEAETVILVEETPEEAKEKVEEKAREIAEELGLSLENITEIEVEVLSLDEELLPS [r1_159_TrMRF]” are 1.44 ± 0.1 kcal/mol, 2.16 ± 0.15 kcal/mol and 2.12 ± 0.27 kcal/mol.
Turning to “NINPEFMEKIVNEIANRMNQQGWKIKKVDIEPYPNGMIDIKVNGREIEFPWPNGRWFRIKVEAKRVPPEQRS [r1_31_TrROS]”, the “folding stability dG unfold” value worked out at 1.93 ± 0.027 kcal/mol in data set [1], 2.87 ± 0.076 kcal/mol in data set [2] and 2.41 ± 0.076 kcal/mol in data set [3].
Turning to “NPGKPLEIDIEVDIFEFPGGKFAIITFPIRLPGNGYWVQIEFWINPDGGLVMKIDVYDPGNGKPEEITIPIS [r1_261_TrROS]”, the “folding stability dG unfold” value in data set [1] amounted to 3.27 ± 0.27 kcal/mol; in data set [2] it was 5.04 ± 0.2 kcal/mol; in data set [3], 4.64 ± 0.2 kcal/mol.
For the sequence “NRYYRITIRNPDGMPIELFVRRSPNGEYMVRVKINMPNKKPKTIWFPFKSPEDILEEIRKHLPWDIEIEPWS [r1_137_TrROS]”, the results for the “folding stability dG unfold” value in data set [1], in data set [2] and in data set [3] were 3.46 ± 0.089 kcal/mol, 3.28 ± 0.053 kcal/mol and 3.31 ± 0.087 kcal/mol, respectively.
As to “PETVTLTVEIEIEVRGPDGKPLTPEQVEELAKALAEELAAELGLEVEVTVTVEPVGPDGKYRITVTVTIRPS [r1_231_TrROS_Hall]”, the “folding stability dG unfold” value in data set [1] is 4.45 ± 0.34 kcal/mol; in data set [2], 5.69 ± 0.86 kcal/mol; in data set [3], more than 6 kcal/mol.
With “PFPIYVKIERDGKPVREEPIPMDELQEMPVEEVIEYARELLRQFPGRKYKVEVYFPGGPREFEIKDPEDIKS [r1_477_TrROS]”, the results for the “folding stability dG unfold” value in data set [1], in data set [2] and in data set [3] were 0.496 ± 0.071 kcal/mol, 1.58 ± 0.14 kcal/mol and 1.28 ± 0.16 kcal/mol, respectively.
Take “PISAEEAVDYAKHLAERLLKENPPGQEEVEIEFQSPNGWTVKIEIDPNNRKIDVEVYPRNGEPIAKAKIKVS [r1_370_TrROS]”: the “folding stability dG unfold” value was determined as 0.108 ± 0.12 kcal/mol in data set [1], 0.378 ± 0.33 kcal/mol in data set [2] and 0.205 ± 0.35 kcal/mol in data set [3].
In the same order, the values of “PKIVEILDAKRTPDGSLVIKIKIEPPEPNVKIKVIVKTPNSFKVYEIDPTKTTLEITIPGNVTNPKIEVFGS [r1_428_TrMRF]” are 2.51 ± 0.17 kcal/mol, 2.65 ± 0.14 kcal/mol and 2.52 ± 0.34 kcal/mol.
Consider “PKYVIKAVNPKVGEVKTIEVDDDPEKAIEALKALKKADPDIKFYISGVKSDELIEAAKEAGLEDLNFTEVES [r1_114_TrMRF]”, for which the figures for the “folding stability dG unfold” value in data set [1], in data set [2] and in data set [3] were 3.2 ± 0.15 kcal/mol, 4.02 ± 0.27 kcal/mol and 4.02 ± 0.32 kcal/mol, respectively.
“PLVLRLPDGAEAVRVEFFPERNTVVAFFRAPDRLLVVEVRFEPVGGGLLAPVRVRALPVPPTPEQLRLLAES [r1_154_TrMRF]”: the “folding stability dG unfold” value was found to be 1.35 ± 0.098 kcal/mol in data set [1], 2.58 ± 0.089 kcal/mol in data set [2] and 2.17 ± 0.093 kcal/mol in data set [3].
As for “PNFKIDIEIIKAEEVPPRPTDDGKPQPVRRIHIRIEVKGPPDQPPELANNIVEEIMAELQELGLPVHIHVWS [r1_305_TrROS]”, the figures for the “folding stability dG unfold” value in data set [1], in data set [2] and in data set [3] were 1.62 ± 0.054 kcal/mol, 1.91 ± 0.075 kcal/mol and 1.83 ± 0.21 kcal/mol, respectively.
In the case of “RVEVLENGEVIAVFPAEFLADIPPDDPLLLTLTLTLPDGYRVYVTFYNLPDGTVVAIARVEPVEVGPELAAS [r1_394_TrMRF]”, the “folding stability dG unfold” value came to 3.32 ± 0.14 kcal/mol in data set [1], 4.46 ± 0.066 kcal/mol in data set [2] and 4.22 ± 0.12 kcal/mol in data set [3].
Take “SAAAENGEITISVEVELDPETNTLTIKRVEITVNGKLIATATLTITLPPPPPEPEETVYVHPDDPEALKSAG [r14_571_TrROS_Hall]”: the “folding stability dG unfold” value in data set [1] was determined as 1.54 ± 0.023 kcal/mol; in data set [2], 1.97 ± 0.038 kcal/mol; in data set [3] it was 1.85 ± 0.093 kcal/mol.
